Test results taken from US20120316071A1 (published 2012).
Residue numbers refer to the chain shown, from its start. Names and notes keep the numbering of the source.

B1: Fab VH1-46_IGHD6-6*01_IGHJ1*01 S102A/S103P/S104F/H111F (APFF) & L6_IGKJ1*01 S30P (Fab, V domains shown)
VH: QVQLVQSGAEVKKPGASVKVSCKASGYTFTSYYMHWVRQAPGQGLEWMGIINPSGGSTSYAQKFQGRVTMTRDTSTSTVYMELSSLRSEDTAVYYCAREEYAPFSAEYFQFWGQGTLVTVSS
VL: EIVLTQSPATLSLSPGERATLSCRASQSVPSYLAWYQQKPGQAPRLLIYDASNRATGIPARFSGSGSGTDFTLTISSLEPEDFAVYYCQQRSNWPPWTFGQGTKVEIKR
notes: Fab made in E. coli; The constant parts (CH1 with His6 and Flag tags from plasmid A, kappa CL from plasmid C) are not added here; also called APFF & S30P
B2: Fab VH1-46_IGHD6-6*01_IGHJ1*01 S102A/S103P/S104F/H111F (APFF) & L6_IGKJ1*01 S31V (Fab, V domains shown)
VH: B1 VH
VL: B1 VL with P30S, S31V
notes: Fab made in E. coli; The constant parts (CH1 with His6 and Flag tags from plasmid A, kappa CL from plasmid C) are not added here; also called APFF & S31V
B3: Fab VH1-46_IGHD6-6*01_IGHJ1*01 S102A/S103P/S104F/H111F (APFF) & L6_IGKJ1*01 S30Q (Fab, V domains shown)
VH: B1 VH
VL: B1 VL with P30Q
notes: Fab made in E. coli; The constant parts (CH1 with His6 and Flag tags from plasmid A, kappa CL from plasmid C) are not added here; also called APFF & S30Q
B4: Fab VH1-46_IGHD6-6*01_IGHJ1*01 S102A/S103P/S104F/H111F (APFF) & L6_IGKJ1*01 S30A (Fab, V domains shown)
VH: B1 VH
VL: B1 VL with P30A
notes: Fab made in E. coli; The constant parts (CH1 with His6 and Flag tags from plasmid A, kappa CL from plasmid C) are not added here; also called APFF & S30A
B5: Fab VH1-46_IGHD6-6*01_IGHJ1*01 S102A/S103P/S104F/H111F (APFF) & L6_IGKJ1*01 S31E (Fab, V domains shown)
VH: B1 VH
VL: B1 VL with P30S, S31E
notes: Fab made in E. coli; The constant parts (CH1 with His6 and Flag tags from plasmid A, kappa CL from plasmid C) are not added here; also called APFF & S31E
B6: Fab VH1-46_IGHD6-6*01_IGHJ1*01 S102A/S103P/S104F/H111F (APFF) & L6_IGKJ1*01 S30G (Fab, V domains shown)
VH: B1 VH
VL: B1 VL with P30G
notes: Fab made in E. coli; The constant parts (CH1 with His6 and Flag tags from plasmid A, kappa CL from plasmid C) are not added here; also called APFF & S30G
B7: Fab VH1-46_IGHD6-6*01_IGHJ1*01 S102A/S103P/S104F/H111F (APFF) & L6_IGKJ1*01 S31P (Fab, V domains shown)
VH: B1 VH
VL: B1 VL with P30S, S31P
notes: Fab made in E. coli; The constant parts (CH1 with His6 and Flag tags from plasmid A, kappa CL from plasmid C) are not added here; also called APFF & S31P
B8: Fab VH1-46_IGHD6-6*01_IGHJ1*01 S102A/S103P/S104F/H111F (APFF) & L6_IGKJ1*01 S31F (Fab, V domains shown)
VH: B1 VH
VL: B1 VL with P30S, S31F
notes: Fab made in E. coli; The constant parts (CH1 with His6 and Flag tags from plasmid A, kappa CL from plasmid C) are not added here; also called APFF & S31F
B9: Fab VH1-46_IGHD6-6*01_IGHJ1*01 S102A/S103P/S104F/H111F (APFF) & L6_IGKJ1*01 S31T (Fab, V domains shown)
VH: B1 VH
VL: B1 VL with P30S, S31T
notes: Fab made in E. coli; The constant parts (CH1 with His6 and Flag tags from plasmid A, kappa CL from plasmid C) are not added here; also called APFF & S31T
B10: Fab VH1-46_IGHD6-6*01_IGHJ1*01 S102A/S103P/S104F/H111F (APFF) & L6_IGKJ1*01 S31Q (Fab, V domains shown)
VH: B1 VH
VL: B1 VL with P30S, S31Q
notes: Fab made in E. coli; The constant parts (CH1 with His6 and Flag tags from plasmid A, kappa CL from plasmid C) are not added here; also called APFF & S31Q
B11: Fab VH1-46_IGHD6-6*01_IGHJ1*01 S102A/S103P/S104F/H111F (APFF) & L6_IGKJ1*01 S31Y (Fab, V domains shown)
VH: B1 VH
VL: B1 VL with P30S, S31Y
notes: Fab made in E. coli; The constant parts (CH1 with His6 and Flag tags from plasmid A, kappa CL from plasmid C) are not added here; also called APFF & S31Y
B12: Fab VH1-46_IGHD6-6*01_IGHJ1*01 S102A/S103P/S104F/H111F (APFF) & L6_IGKJ1*01 S30R (Fab, V domains shown)
VH: B1 VH
VL: B1 VL with P30R
notes: Fab made in E. coli; The constant parts (CH1 with His6 and Flag tags from plasmid A, kappa CL from plasmid C) are not added here; also called APFF & S30R
B13: Fab VH1-46_IGHD6-6*01_IGHJ1*01 S102A/S103P/S104F/H111F (APFF) & L6_IGKJ1*01 S31N (Fab, V domains shown)
VH: B1 VH
VL: B1 VL with P30S, S31N
notes: Fab made in E. coli; The constant parts (CH1 with His6 and Flag tags from plasmid A, kappa CL from plasmid C) are not added here; also called APFF & S31N
B14: Fab VH1-46_IGHD6-6*01_IGHJ1*01 S102A/S103P/S104F/H111F (APFF) & L6_IGKJ1*01 S31H (Fab, V domains shown)
VH: B1 VH
VL: B1 VL with P30S, S31H
notes: Fab made in E. coli; The constant parts (CH1 with His6 and Flag tags from plasmid A, kappa CL from plasmid C) are not added here; also called APFF & S31H
B15: Fab VH1-46_IGHD6-6*01_IGHJ1*01 S102A/S103P/S104F/H111F (APFF) & L6_IGKJ1*01 S31I (Fab, V domains shown)
VH: B1 VH
VL: B1 VL with P30S, S31I
notes: Fab made in E. coli; The constant parts (CH1 with His6 and Flag tags from plasmid A, kappa CL from plasmid C) are not added here; also called APFF & S31I
B16: Fab VH1-46_IGHD6-6*01_IGHJ1*01 S102A/S103P/S104F/H111F (APFF) & L6_IGKJ1*01 S31D (Fab, V domains shown)
VH: B1 VH
VL: B1 VL with P30S, S31D
notes: Fab made in E. coli; The constant parts (CH1 with His6 and Flag tags from plasmid A, kappa CL from plasmid C) are not added here; also called APFF & S31D
B17: Fab VH1-46_IGHD6-6*01_IGHJ1*01 S102A/S103P/S104F/H111F (APFF) & L6_IGKJ1*01 S31K (Fab, V domains shown)
VH: B1 VH
VL: B1 VL with P30S, S31K
notes: Fab made in E. coli; The constant parts (CH1 with His6 and Flag tags from plasmid A, kappa CL from plasmid C) are not added here; also called APFF & S31K
B18: Fab VH1-46_IGHD6-6*01_IGHJ1*01 S102A/S103P/S104F/H111F (APFF) & L6_IGKJ1*01 S30V (Fab, V domains shown)
VH: B1 VH
VL: B1 VL with P30V
notes: Fab made in E. coli; The constant parts (CH1 with His6 and Flag tags from plasmid A, kappa CL from plasmid C) are not added here; also called APFF & S30V
B19: Fab VH1-46_IGHD6-6*01_IGHJ1*01 S102A/S103P/S104F/H111F (APFF) & L6_IGKJ1*01 S30T (Fab, V domains shown)
VH: B1 VH
VL: B1 VL with P30T
notes: Fab made in E. coli; The constant parts (CH1 with His6 and Flag tags from plasmid A, kappa CL from plasmid C) are not added here; also called APFF & S30T
B20: Fab VH1-46_IGHD6-6*01_IGHJ1*01 S102A/S103P/S104F/H111F (APFF) & L6_IGKJ1*01 S31A (Fab, V domains shown)
VH: B1 VH
VL: B1 VL with P30S, S31A
notes: Fab made in E. coli; The constant parts (CH1 with His6 and Flag tags from plasmid A, kappa CL from plasmid C) are not added here; also called APFF & S31A
B21: Fab VH1-46_IGHD6-6*01_IGHJ1*01 S102A/S103P/S104F/H111F (APFF) & L6_IGKJ1*01 S30N (Fab, V domains shown)
VH: B1 VH
VL: B1 VL with P30N
notes: Fab made in E. coli; The constant parts (CH1 with His6 and Flag tags from plasmid A, kappa CL from plasmid C) are not added here; also called APFF & S30N

biological target: T1, Recombinant Human DLL4 (delta-like protein 4) (human, UniProt Q9NR61 27-524); experiment: ECL (MSD) multispot binding assay, antigen spotted on plate, Fab in solution;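 note: purified Fab incubated 1 h at 20 °C, detected via TAG-labelled antibody electrochemiluminescence, antigen spot compared with the blank in the same well, ratio at least 4 counted as hit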
T1 construct: Bought recombinant human DLL4 (R&D Systems Cat#1506-D4/CF); also called rHuman DLL4

Row | ECL signal | Signal/Blank | Binder
1 | 1260 | 4.2 | B1
2 | – | 511 | B2
3 | 197000 | 602 | B3
4 | 187000 | 1010 | B4
5 | 171000 | 517 | B5
6 | 178000 | 506 | B6
7 | – | 156 | B7
8 | – | 459 | B8
9 | 191000 | 576 | B9
10 | 165000 | 406 | B10
11 | 188000 | 662 | B11
12 | 189000 | 682 | B12
13 | 178000 | 605 | B13
14 | – | 838 | B14
15 | – | 541 | B15
16 | – | 313 | B16
17 | 179000 | 351 | B17
18 | 141000 | 497 | B18
19 | 136000 | 348 | B19
20 | – | 882 | B20
21 | 175000 | 497 | B21
